Test results taken from patent US20100311648A1 (AstraZeneca / MedImmune, published 2010).
Blank lines part the entries; values can stand above or below the binder they belong to. Positions of bridges follow the written chain, without caps; N, C: chain ends. Non-standard residues stand in square brackets, D forms with d. dPhe(2-CF3) = N[C@H](Cc1ccccc1C(F)(F)F)C(=O)O; dPhe(3,4-F2) = N[C@H](Cc1ccc(F)c(F)c1)C(=O)O; dPhe(3,5-F2) = N[C@H](Cc1cc(F)cc(F)c1)C(=O)O; dPhe(4-CN) = N#Cc1ccc(C[C@@H](N)C(=O)O)cc1; dPhe(2-Cl) = N[C@H](Cc1ccccc1Cl)C(=O)O; dPhe(2-Me) = Cc1ccccc1C[C@@H](N)C(=O)O; dPhe(2-F) = N[C@H](Cc1ccccc1F)C(=O)O; Orn = NCCC[C@H](N)C(=O)O

Key:
[1] = target: T1, human melanocortin-4 receptor (human, UniProt P32245 1-332); assay: cell-based or functional assay
[2] = target: T1, human melanocortin-4 receptor; assay: [I125]-NDP-α-MSH competition, hMC4-R HEK-293 membranes
Description: (§1) A competitive inhibition binding assay was performed for exemplified peptides according to the invention using membrane homogenates prepared from HEK-293 cells that express recombinant hMC4-R, hMC3-R, or hMC5-R, and from B-16 mouse melanoma cells (containing endogenous MC1-R). In some instances, HEK-293 cells that express recombinant hMC1-R were employed. Assays were performed in 96 well GF/B Millipore multiscreen filtration plates (MAFB NOB10) pre-coated with 0.5% bovine serum albumin (Fraction V). […] After incubation for 60 minutes at 37° C., the assay mixture was filtered and the membranes washed three times with ice-cold buffer. Filters were dried and counted in a gamma counter for bound radioactivity. […] Each assay was conducted in triplicate and the actual mean values are described, with results less than 0% reported as 0%. Ki values for test peptides of the present invention were determined using Graph-Pad Prism® curve-fitting software.

melanocortin-1 receptor = target: T2, melanocortin-1 receptor (mouse (B-16 melanoma cells); in some …, UniProt Q01727 1-315); assay: [I125]-NDP-α-MSH competition, MC1-R membranes
T2 construct: whole, on cells; membrane homogenates; also called MC1-R; mouse B16 MC1-R
Description: as §1

T2 sequence (Q01727 whole entry): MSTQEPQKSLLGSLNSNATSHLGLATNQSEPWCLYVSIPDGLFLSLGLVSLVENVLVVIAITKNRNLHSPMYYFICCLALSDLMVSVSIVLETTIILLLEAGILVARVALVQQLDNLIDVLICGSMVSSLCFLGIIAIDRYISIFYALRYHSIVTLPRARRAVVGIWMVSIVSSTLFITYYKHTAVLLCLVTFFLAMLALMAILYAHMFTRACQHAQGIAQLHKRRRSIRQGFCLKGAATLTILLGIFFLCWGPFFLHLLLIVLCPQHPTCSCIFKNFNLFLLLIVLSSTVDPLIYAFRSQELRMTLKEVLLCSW
T1 sequence (P32245 whole entry): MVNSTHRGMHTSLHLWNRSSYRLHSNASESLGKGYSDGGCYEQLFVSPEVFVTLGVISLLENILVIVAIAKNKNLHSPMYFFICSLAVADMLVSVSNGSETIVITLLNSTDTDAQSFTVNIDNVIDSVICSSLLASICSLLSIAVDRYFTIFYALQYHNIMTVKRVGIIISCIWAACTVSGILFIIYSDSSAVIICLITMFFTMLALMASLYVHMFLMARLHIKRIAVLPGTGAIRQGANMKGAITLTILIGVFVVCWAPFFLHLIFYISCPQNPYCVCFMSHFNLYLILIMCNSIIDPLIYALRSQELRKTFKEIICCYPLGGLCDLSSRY

B1: Ac-Arg-cyclo(Lys-Gln-D-Phe(4-CN)-Arg-Trp-Asp)-NH2 (peptide)
peptide: Ac-RKQ[dPhe(4-CN)]RWD-NH2
modifications: lactam 2-7
SMILES: CC(=O)N[C@@H](CCCNC(=N)N)C(=O)N[C@H]1CCCCNC(=O)C[C@@H](C(N)=O)NC(=O)[C@H](Cc2c[nH]c3ccccc23)NC(=O)[C@H](CCCNC(=N)N)NC(=O)[C@@H](Cc2ccc(C#N)cc2)NC(=O)[C@H](CCC(N)=O)NC1=O
notes: also called No. 93
EC50, cAMP, 0.1 ng/mL Doxycycline [1]: 0.3 nM | EC50, cAMP, 10 ng/mL Doxycycline [1]: 0.17 nM | Intrinsic Activity, cAMP, 0.1 ng/mL Doxycycline [1]: 44% | Intrinsic Activity, cAMP, 10 ng/mL Doxycycline [1]: 97% | Ki [2]: 1 nM

Binder: RDPXRWK (N-terminal Ac; D-Phe(2-F) 4; lactam Asp 2-Lys 7; C-terminal NH2) [Ac-Arg-cyclo(Asp-Pro-D-Phe(2-F)-Arg-Trp-Lys)-NH2]
EC50, cAMP, 0.1 ng/mL Doxycycline [1]: 191 nM | EC50, cAMP, 10 ng/mL Doxycycline [1]: 10 nM | Intrinsic Activity, cAMP, 0.1 ng/mL Doxycycline [1]: 16% | Intrinsic Activity, cAMP, 10 ng/mL Doxycycline [1]: 100% | Ki [2]: 78 nM

Binder: Ac-REQ[dPhe(2-Me)]RW[Orn]-NH2 (lactam 2-7, also called No. 110) [Ac-Arg-cyclo(Glu-Gln-D-Phe(2-Me)-Arg-Trp-Orn)-NH2]
EC50, cAMP, 0.1 ng/mL Doxycycline [1]: 0.6 nM | EC50, cAMP, 10 ng/mL Doxycycline [1]: 0.06 nM | Intrinsic Activity, cAMP, 0.1 ng/mL Doxycycline [1]: 84% | Intrinsic Activity, cAMP, 10 ng/mL Doxycycline [1]: 105% | Ki (melanocortin-1 receptor): 105 nM

Binder: Ac-REQ[dPhe(2-Cl)]RW[Orn]-NH2 (lactam 2-7, also called No. 34) [Ac-Arg-cyclo(Glu-Gln-D-Phe(2-Cl)-Arg-Trp-Orn)-NH2]
EC50, cAMP, 0.1 ng/mL Doxycycline [1]: 1 nM | EC50, cAMP, 10 ng/mL Doxycycline [1]: 0.137 nM | Intrinsic Activity, cAMP, 0.1 ng/mL Doxycycline [1]: 79% | Intrinsic Activity, cAMP, 10 ng/mL Doxycycline [1]: 97% | Ki (melanocortin-1 receptor): 128 nM | Ki [2]: 7 nM

Binder: Ac-RES[dPhe(2-F)]RW[Orn]-NH2 (lactam 2-7, also called No. 58) [Ac-Arg-cyclo(Glu-Ser-D-Phe(2-F)-Arg-Trp-Orn)-NH2]
EC50, cAMP, 0.1 ng/mL Doxycycline [1]: 5 nM | EC50, cAMP, 10 ng/mL Doxycycline [1]: 0.25 nM | Intrinsic Activity, cAMP, 0.1 ng/mL Doxycycline [1]: 67% | Intrinsic Activity, cAMP, 10 ng/mL Doxycycline [1]: 100% | Ki (melanocortin-1 receptor): 138 nM

B2: Ac-Arg-cyclo(Glu-Asn-D-Phe(2-Cl)-Arg-Trp-Orn)-NH2 (peptide)
peptide: Ac-REN[dPhe(2-Cl)]RW[Orn]-NH2
modifications: lactam 2-7
SMILES: CC(=O)N[C@@H](CCCNC(=N)N)C(=O)N[C@H]1CCC(=O)NCCC[C@@H](C(N)=O)NC(=O)[C@H](Cc2c[nH]c3ccccc23)NC(=O)[C@H](CCCNC(=N)N)NC(=O)[C@@H](Cc2ccccc2Cl)NC(=O)[C@H](CC(N)=O)NC1=O
notes: also called No. 84
EC50, cAMP, 0.1 ng/mL Doxycycline [1]: 0.633 nM | EC50, cAMP, 10 ng/mL Doxycycline [1]: 0.09 nM | Intrinsic Activity, cAMP, 0.1 ng/mL Doxycycline [1]: 78% | Intrinsic Activity, cAMP, 10 ng/mL Doxycycline [1]: 97% | Ki (melanocortin-1 receptor): 245 nM | Ki [2]: 7 nM

B3: Ac-Arg-cyclo(Glu-Ala-D-Phe(4-CN)-Arg-Trp-Orn)-NH2 (peptide)
peptide: Ac-REA[dPhe(4-CN)]RW[Orn]-NH2
modifications: lactam 2-7
SMILES: CC(=O)N[C@@H](CCCNC(=N)N)C(=O)N[C@H]1CCC(=O)NCCC[C@@H](C(N)=O)NC(=O)[C@H](Cc2c[nH]c3ccccc23)NC(=O)[C@H](CCCNC(=N)N)NC(=O)[C@@H](Cc2ccc(C#N)cc2)NC(=O)[C@H](C)NC1=O
notes: also called No. 41
EC50, cAMP, 10 ng/mL Doxycycline [1]: 0.8 nM | Intrinsic Activity, cAMP, 0.1 ng/mL Doxycycline [1]: 5% | Intrinsic Activity, cAMP, 10 ng/mL Doxycycline [1]: 84% | Ki (melanocortin-1 receptor): 4300 nM | Ki [2]: 3 nM

The next lines start with the values.

EC50, cAMP, 0.1 ng/mL Doxycycline [1]: 1 nM | EC50, cAMP, 10 ng/mL Doxycycline [1]: 0.18 nM | Intrinsic Activity, cAMP, 0.1 ng/mL Doxycycline [1]: 50% | Intrinsic Activity, cAMP, 10 ng/mL Doxycycline [1]: 112% | Ki [2]: 5 nM
Binder: Ac-R[Orn]N[dPhe(2-CF3)]RWE-NH2 (lactam 2-7) [Ac-Arg-cyclo(Orn-Asn-D-Phe(2-CF3)-Arg-Trp-Glu)-NH2]

EC50, cAMP, 0.1 ng/mL Doxycycline [1]: 1 nM | EC50, cAMP, 10 ng/mL Doxycycline [1]: 0.265 nM | Intrinsic Activity, cAMP, 0.1 ng/mL Doxycycline [1]: 18% | Intrinsic Activity, cAMP, 10 ng/mL Doxycycline [1]: 96% | Ki [2]: 4 nM
Binder: Ac-R[Orn]N[dPhe(4-CN)]RWE-NH2 (lactam 2-7, also called No. 91) [Ac-Arg-cyclo(Orn-Asn-D-Phe(4-CN)-Arg-Trp-Glu)-NH2]

EC50, cAMP, 0.1 ng/mL Doxycycline [1]: 2 nM | EC50, cAMP, 10 ng/mL Doxycycline [1]: 0.095 nM | Intrinsic Activity, cAMP, 0.1 ng/mL Doxycycline [1]: 79% | Intrinsic Activity, cAMP, 10 ng/mL Doxycycline [1]: 95% | Ki [2]: 10 nM
Binder: XDQXRWK (N-terminal Ac; D-Arg 1; D-Phe(2-F) 4; lactam Asp 2-Lys 7; C-terminal NH2, also called No. 82) [Ac-D-Arg-cyclo(Asp-Gln-D-Phe(2-F)-Arg-Trp-Lys)-NH2]

EC50, cAMP, 0.1 ng/mL Doxycycline [1]: 0.65 nM | EC50, cAMP, 10 ng/mL Doxycycline [1]: 0.125 nM | Intrinsic Activity, cAMP, 0.1 ng/mL Doxycycline [1]: 43% | Ki [2]: 3 nM
Binder: Ac-R[Orn]N[dPhe(3,4-F2)]RWE-NH2 (lactam 2-7, also called No. 75) [Ac-Arg-cyclo(Orn-Asn-D-Phe(3,4-diF)-Arg-Trp-Glu)-NH2]

EC50, cAMP, 0.1 ng/mL Doxycycline [1]: 3 nM | EC50, cAMP, 10 ng/mL Doxycycline [1]: 0.155 nM | Intrinsic Activity, cAMP, 0.1 ng/mL Doxycycline [1]: 34% | Intrinsic Activity, cAMP, 10 ng/mL Doxycycline [1]: 80% | Ki [2]: 8 nM
Binder: Ac-R[Orn]N[dPhe(3,5-F2)]RWE-NH2 (lactam 2-7, also called No. 77) [Ac-Arg-cyclo(Orn-Asn-D-Phe(3,5-diF)-Arg-Trp-Glu)-NH2]

EC50, cAMP, 0.1 ng/mL Doxycycline [1]: 0.75 nM | EC50, cAMP, 10 ng/mL Doxycycline [1]: 0.075 nM | Intrinsic Activity, cAMP, 0.1 ng/mL Doxycycline [1]: 78% | Intrinsic Activity, cAMP, 10 ng/mL Doxycycline [1]: 94% | Ki [2]: 6 nM
Binder: XDQXRWK (N-terminal Ac; D-Arg 1; D-Phe(4-F) 4; lactam Asp 2-Lys 7; C-terminal NH2, also called No. 83) [Ac-D-Arg-cyclo(Asp-Gln-D-Phe(4-F)-Arg-Trp-Lys)-NH2]
